Substitutions are numbered along the chain they refer to. In names and notes the source's numbering stands.
T1: EsCas13d, nuclease-dead (Eubacterium siraeum, UniProt B0MS50, R295A;H300A;R849A;H854A)
T1 sequence: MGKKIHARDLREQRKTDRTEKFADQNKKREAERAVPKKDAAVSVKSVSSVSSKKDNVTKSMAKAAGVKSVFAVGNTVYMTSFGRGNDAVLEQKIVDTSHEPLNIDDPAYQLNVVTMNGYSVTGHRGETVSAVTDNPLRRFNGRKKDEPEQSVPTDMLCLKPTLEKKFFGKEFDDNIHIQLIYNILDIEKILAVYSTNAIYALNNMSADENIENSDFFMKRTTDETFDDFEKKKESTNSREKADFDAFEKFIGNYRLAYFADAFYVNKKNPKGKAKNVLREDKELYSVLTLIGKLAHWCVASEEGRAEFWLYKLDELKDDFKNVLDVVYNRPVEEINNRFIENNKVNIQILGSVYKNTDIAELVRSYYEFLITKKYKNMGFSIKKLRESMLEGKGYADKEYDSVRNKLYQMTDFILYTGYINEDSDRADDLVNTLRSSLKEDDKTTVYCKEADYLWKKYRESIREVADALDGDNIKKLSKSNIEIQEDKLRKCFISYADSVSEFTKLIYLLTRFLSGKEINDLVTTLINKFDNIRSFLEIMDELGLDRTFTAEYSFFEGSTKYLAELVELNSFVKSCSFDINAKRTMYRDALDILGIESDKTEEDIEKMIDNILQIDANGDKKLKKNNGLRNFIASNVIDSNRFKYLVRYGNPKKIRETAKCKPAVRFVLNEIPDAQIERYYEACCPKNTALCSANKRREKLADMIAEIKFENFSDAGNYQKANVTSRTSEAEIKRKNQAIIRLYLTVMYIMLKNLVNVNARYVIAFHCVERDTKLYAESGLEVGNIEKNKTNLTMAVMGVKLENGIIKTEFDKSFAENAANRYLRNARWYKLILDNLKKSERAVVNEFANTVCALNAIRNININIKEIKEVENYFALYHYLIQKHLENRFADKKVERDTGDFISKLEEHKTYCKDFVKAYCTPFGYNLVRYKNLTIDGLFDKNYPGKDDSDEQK

B1: target 1 C6U,A9C (mixed)
RNA 1: CACCCGUGCAAAAAUGCAGGGGUCUAAAACUGAGCGGAUAACCUCUCUAUGG
RNA 2: GGGAAUGGAUCCACAUCUACGAAUUCGUACCAUAGAGAGGUUCUCUGCUCACCGAGAUCGGAAGAGCACACGU
B2: target 1 insU 3' of 18,insC 3' of 13 (mixed)
RNA 1: B1 RNA 1
RNA 2: GGGAAUGGAUCCACAUCUACGAAUUCGUACCAUAUGAGAGCGUUAUCCGCUCACCGAGAUCGGAAGAGCACACGU
B3: target 1 insA 3' of 22,insC 3' of 14 (mixed)
RNA 1: B1 RNA 1
RNA 2: B2 RNA 2 with C31A, A32C, U33A, A34U, U35A, G40C, C41G
B4: target 1 C6G,C7U (mixed)
RNA 1: B1 RNA 1
RNA 2: B1 RNA 2 with C43A, C45U, U46G
B5: target 1 insC 3' of 16,insC 3' of 16 (mixed)
RNA 1: B1 RNA 1
RNA 2: B2 RNA 2 with U35G, G36A, A37C, G38C, A39G, G40A, C41G
B6: target 1 U8A,A9C (mixed)
RNA 1: B1 RNA 1
RNA 2: B1 RNA 2 with U44A, U46C
B7: target 1 A9G,A18C (mixed)
RNA 1: B1 RNA 1
RNA 2: B1 RNA 2 with A34C, C43G, U46C
B8: target 1 G15A,U19A (mixed)
RNA 1: B1 RNA 1
RNA 2: B1 RNA 2 with U33A, G37A, C43A, U46C
B9: target 1 C4A,U11A (mixed)
RNA 1: B1 RNA 1
RNA 2: B1 RNA 2 with U41A, C43A, U46C, C48A
B10: target 1 insU 3' of 20,insG 3' of 14 (mixed)
RNA 1: B1 RNA 1
RNA 2: B2 RNA 2 with A34U, U35A, C41G
B11: target 1 C4A,U10C (mixed)
RNA 1: B1 RNA 1
RNA 2: B1 RNA 2 with U42C, C43A, U46C, C48A
B12: target 1 U19C,C21U (mixed)
RNA 1: B1 RNA 1
RNA 2: B1 RNA 2 with C31U, U33C, C43A, U46C
B13: target 1 U8G,U11G (mixed)
RNA 1: B1 RNA 1
RNA 2: B1 RNA 2 with U41G, C43A, U44G, U46C
B14: target 1 insG 3' of 4,insG 3' of 2 (mixed)
RNA 1: B1 RNA 1
RNA 2: GGGAAUGGAUCCACAUCUACGAAUUCGUACCAUAGAGAGGUUAUCCGCGUCGACCGAGAUCGGAAGAGCACACGU
B15: target 1 insG 3' of 14,insC 3' of 8 (mixed)
RNA 1: B1 RNA 1
RNA 2: B14 RNA 2 with U41G, A43U, U44A, C45U, G47C, U50C, C51U, G52C
B16: target 1 insC 3' of 13,insU 3' of 9 (mixed)
RNA 1: B1 RNA 1
RNA 2: GGGAAUGGAUCCACAUCUACGAAUUCGUACCAUAGAGAGCGUUAUUCCGCUCACCGAGAUCGGAAGAGCACACGU
B17: target 1 G5C,C6U (mixed)
RNA 1: B1 RNA 1
RNA 2: B1 RNA 2 with C43A, G47C
B18: target 1 G5U,C6A (mixed)
RNA 1: B1 RNA 1
RNA 2: B1 RNA 2 with C43A, U46A, G47U
B19: target 1 C4A,C22U (mixed)
RNA 1: B1 RNA 1
RNA 2: B1 RNA 2 with C30U, C43A, U46C, C48A
B20: target 1 insC 3' of 5,insA 3' of 2 (mixed)
RNA 1: B1 RNA 1
RNA 2: B14 RNA 2 with G49C, G52A
B21: target 1 insA 3' of 17,insA 3' of 12 (mixed)
RNA 1: B1 RNA 1
RNA 2: B2 RNA 2 with U35G, G36A, C41G, G42A
B22: target 1 C2G,U19G (mixed)
RNA 1: B1 RNA 1
RNA 2: B1 RNA 2 with U33G, C43A, U46C, C50G
B23: target 1 insU 3' of 20,insG 3' of 4 (mixed)
RNA 1: B1 RNA 1
RNA 2: GGGAAUGGAUCCACAUCUACGAAUUCGUACCAUUAGAGAGGUUAUCCGCGUCACCGAGAUCGGAAGAGCACACGU
B24: target 1 A14G,U19G (mixed)
RNA 1: B1 RNA 1
RNA 2: B1 RNA 2 with U33G, A38G, C43A, U46C
B25: target 1 C4A,G5A (mixed)
RNA 1: B1 RNA 1
RNA 2: B1 RNA 2 with C43A, U46C, G47A, C48A
B26: target 1 G12U,U19G (mixed)
RNA 1: B1 RNA 1
RNA 2: B1 RNA 2 with U33G, G40U, C43A, U46C
B27: target 1 insC 3' of 22,insC 3' of 3 (mixed)
RNA 1: B1 RNA 1
RNA 2: B23 RNA 2 with A32C, U33A, G50U, U51C
B28: target 1 insG 3' of 7,insG 3' of 3 (mixed)
RNA 1: B1 RNA 1
RNA 2: B14 RNA 2 with C46G, G47C, C48G, G49C, C51G, G52C
B29: target 1 insU 3' of 9,insA 3' of 8 (mixed)
RNA 1: B1 RNA 1
RNA 2: B16 RNA 2 with C40G, G41U, U43A, A44U, U46A
B30: target 1 C2G,U11A (mixed)
RNA 1: B1 RNA 1
RNA 2: B1 RNA 2 with U41A, C43A, U46C, C50G
B31: target 1 insC 3' of 17,insC 3' of 5 (mixed)
RNA 1: B1 RNA 1
RNA 2: B23 RNA 2 with U34A, A35G, G36C, G50C
B32: target 1 insU 3' of 20,insC 3' of 8 (mixed)
RNA 1: B1 RNA 1
RNA 2: B23 RNA 2 with G48C, C49G, G50C
B33: target 1 insU 3' of 14,insG 3' of 8 (mixed)
RNA 1: B1 RNA 1
RNA 2: B16 RNA 2 with G39U, C40G, U46G
B34: target 1 insG 3' of 14,insG 3' of 6 (mixed)
RNA 1: B1 RNA 1
RNA 2: B16 RNA 2 with C40G, U46C, C48G

biological target: T1, EsCas13d, nuclease-dead; assay: crRNA (strand 1, pre-loaded); Mg2+; 40 mM Tris-HCl pH 7.5, 150 mM NaCl, 6 mM MgCl2, 1 mM DTT, 0.1% Tween-20, 0.2 mg/ml BSA; 25 C; 10 min per concentration, then washed; settings: tags: His6-TwinStrep-SUMO cleaved; N-terminal SNAP kept (SNAP-Surface 488); label: 3' end held by stalled T7 RNA polymerase

Row | Binder | Kd
1 | B1 | 33.1 ± 1.9 nM
2 | B2 | 49 ± 7 nM
3 | B3 | 36 ± 6 nM
4 | B4 | 8.06 ± 0.32 nM
5 | B5 | 72 ± 22 nM
6 | B6 | 8.9 ± 0.4 nM
7 | B7 | 64 ± 7 nM
8 | B8 | 60 ± 19 nM
9 | B9 | 23.9 ± 1.8 nM
10 | B10 | 18.9 ± 0.9 nM
11 | B11 | 5.53 ± 0.31 nM
12 | B12 | 5.98 ± 0.2 nM
13 | B13 | 18.9 ± 0.7 nM
14 | B14 | 4.72 ± 0.29 nM
15 | B15 | 41 ± 5 nM
16 | B16 | 10 ± 0.5 nM
17 | B17 | 11.6 ± 0.4 nM

Row | Binder | Kd
18 | B18 | 24.3 ± 1.6 nM
19 | B19 | 9.2 ± 1 nM
20 | B20 | 7.87 ± 0.33 nM
21 | B21 | 42 ± 8 nM
22 | B22 | 38 ± 4 nM
23 | B23 | 10.4 ± 0.7 nM
24 | B24 | ~80 nM
25 | B25 | 44 ± 7 nM
26 | B26 | 35 ± 5 nM
27 | B27 | 15.6 ± 1.3 nM
28 | B28 | 5.41 ± 0.21 nM
29 | B29 | 9.8 ± 0.4 nM
30 | B30 | 13.6 ± 1.1 nM
31 | B31 | 61 ± 6 nM
32 | B32 | 19.1 ± 1 nM
33 | B33 | 38.1 ± 2.5 nM
34 | B34 | 10.7 ± 0.9 nM

— article PMC10786891, “Massively parallel profiling of RNA-targeting CRISPR-Cas13d”
